# Tests used:
# HLA-B*08:01 [1] = test: IEDB peptide-MHC binding, purified MHC/competitive/radioactivity; filed as Kd, often an IC50 or EC50 that approximates it; ≥ and ≤ were set here for values at or beyond the usual limits of such assays
# HLA-B*40:01 [2] = test: as above
# HLA-B*44:02 [3] = test: as above
# HLA-B*44:03 = test: as above
# HLA-A*32:01 = test: as above
# HLA-A*26:01 [4] = test: IEDB peptide-MHC binding, purified MHC/competitive/fluorescence; filed as Kd, often an IC50 or EC50 that approximates it; ≥ and ≤ were set here for values at or beyond the usual limits of such assays
# HLA-A*01:01 [5] = test: IEDB peptide-MHC binding, purified MHC/direct/fluorescence; filed as Kd, often an IC50 or EC50 that approximates it; ≥ and ≤ were set here for values at or beyond the usual limits of such assays; conditions: source organism: Coxiella burnetii
# HLA-A*02:01 = test: as above; conditions: source organism: Coxiella burnetii
# HLA-A*03:01 = test: as above; conditions: source organism: Coxiella burnetii
# HLA-A*11:01 = test: as above; conditions: source organism: Coxiella burnetii
# HLA-A*26:01 [6] = test: as above; conditions: source organism: Coxiella burnetii
# HLA-A*31:01 = test: as above; conditions: source organism: Coxiella burnetii
# HLA-A*69:01 = test: as above; conditions: source organism: Coxiella burnetii
# HLA-B*07:02 [7] = test: as above; conditions: source organism: Coxiella burnetii
# HLA-B*08:01 [8] = test: as above; conditions: source organism: Coxiella burnetii
# HLA-B*15:01 = test: as above; conditions: source organism: Coxiella burnetii
# HLA-B*27:05 = test: as above; conditions: source organism: Coxiella burnetii
# HLA-B*40:01 [9] = test: as above; conditions: source organism: Coxiella burnetii
# HLA-B*44:02 [10] = test: as above; conditions: source organism: Coxiella burnetii
# HLA-B*58:01 = test: as above; conditions: source organism: Coxiella burnetii
# HLA-A*01:01 [11] = test: IEDB peptide-MHC binding, purified MHC/competitive/radioactivity; filed as Kd, often an IC50 or EC50 that approximates it; ≥ and ≤ were set here for values at or beyond the usual limits of such assays
# HLA-A*26:01 [12] = test: as above
# HLA-A*29:02 = test: as above
# HLA-A*30:01 = test: as above
# HLA-A*30:02 = test: as above
# HLA-B*35:01 = test: as above
# HLA-B*18:01 = test: IEDB peptide-MHC binding, purified MHC/direct/fluorescence; filed as Kd, often an IC50 or EC50 that approximates it; ≥ and ≤ were set here for values at or beyond the usual limits of such assays; conditions: source organism: Bacillus cereus H3081.97
# HLA-A*02:06 = test: IEDB peptide-MHC binding, purified MHC/competitive/radioactivity; filed as Kd, often an IC50 or EC50 that approximates it; ≥ and ≤ were set here for values at or beyond the usual limits of such assays
# HLA-B*07:02 [13] = test: as above
# HLA-B*51:01 = test: as above
# HLA-B*53:01 = test: as above; conditions: source organism: Dengue virus 2 Jamaica/1409/1983
# HLA-A*02:02 = test: as above; conditions: source organism: Vaccinia virus WR
# HLA-A*02:03 = test: as above; conditions: source organism: Vaccinia virus WR
# [14] = source organism: Dengue virus 2 Jamaica/1409/1983
# [15] = source organism: Dengue virus 3 Martinique/1243/1999
# [16] = source organism: Vaccinia virus WR
# [17] = source organism: Escherichia coli
# [18] = source organism: Mammarenavirus guanaritoense
# [19] = source organism: Dengue virus 4 Philippines/H241/1956
# [20] = source organism: Dengue virus 1 Brazil/97-11/1997
# [21] = source organism: Dengue virus 2 Peru/IQT2913/1996
# [22] = source organism: Mammarenavirus brazilense
# [23] = source organism: Lymphocytic choriomeningitis virus (strain WE)
sequence,measurement,setting,value
AAGRKSLTL,Kd,HLA-B*08:01 [1]; [14],210 nM
AEISGSSPI,Kd,HLA-B*40:01 [2]; [14],0.66 nM
same,Kd,HLA-B*44:02 [3]; [14],14.6 nM
same,Kd,HLA-B*44:03; [14],25.5 nM
AEMEEALKGL,Kd,HLA-B*40:01 [2]; [15],15.5 nM
same,Kd,HLA-B*44:02 [3]; [15],26 nM
same,Kd,HLA-B*44:03; [15],56.2 nM
AETQNSSFI,Kd,HLA-B*40:01 [2]; [15],142 nM
same,Kd,HLA-B*44:02 [3]; [15],2.67 nM
same,Kd,HLA-B*44:03; [15],123 nM
CINVRRCAL,Kd,HLA-B*08:01 [1]; [16],6.94 nM
DEDCAHWKEA,Kd,HLA-A*32:01; [14],≥ 69900 nM
DTAKAFAYL,Kd,HLA-A*26:01 [4]; [17],186 nM
DVLRQYVLM,Kd,HLA-A*26:01 [4]; [17],2140 nM
EAAGIAACL,Kd,HLA-A*26:01 [4]; source organism: Escherichia coli F11,14.6 nM
EEIAVQNWL,Kd,HLA-B*40:01 [2]; [14],14.8 nM
same,Kd,HLA-B*44:02 [3]; [14],6.91 nM
same,Kd,HLA-B*44:03; [14],10.6 nM
EEMPLVWDL,Kd,HLA-A*01:01 [5],≥ 20000 nM
same,Kd,HLA-A*02:01,≥ 20000 nM
same,Kd,HLA-A*03:01,≥ 20000 nM
same,Kd,HLA-A*11:01,≥ 20000 nM
same,Kd,HLA-A*26:01 [6],≥ 20000 nM
same,Kd,HLA-A*31:01,≥ 20000 nM
same,Kd,HLA-A*69:01,≥ 20000 nM
same,Kd,HLA-B*07:02 [7],≥ 20000 nM
same,Kd,HLA-B*08:01 [8],≥ 20000 nM
same,Kd,HLA-B*15:01,≥ 20000 nM
same,Kd,HLA-B*27:05,≥ 20000 nM
same,Kd,HLA-B*40:01 [9],18.9 nM
same,Kd,HLA-B*44:02 [10],9330 nM
same,Kd,HLA-B*58:01,≥ 20000 nM
ELILDRGYY,Kd,HLA-A*26:01 [4]; source organism: Bacillus cereus G9241,211 nM
ESALNISGY,Kd,HLA-A*01:01 [11]; [18],37.4 nM
same,Kd,HLA-A*26:01 [12]; [18],118 nM
same,Kd,HLA-A*29:02; [18],≥ 35400 nM
same,Kd,HLA-A*30:01; [18],≥ 67300 nM
same,Kd,HLA-A*30:02; [18],733 nM
same,Kd,HLA-A*32:01; [18],≥ 77800 nM
FIRSTMPLVM,Kd,HLA-B*35:01; [19],2960 nM
FPVQFFIVF,Kd,HLA-B*18:01,≥ 20000 nM
FRRLTSREVL,Kd,HLA-B*08:01 [1]; [20],104 nM
FTLTVAWRTA,Kd,HLA-A*02:06; [15],376 nM
same,Kd,HLA-A*32:01; [15],9400 nM
GEGLHKLGY,Kd,HLA-B*44:02 [3]; [14],120 nM
same,Kd,HLA-B*44:03; [14],280 nM
GESSPNPTV,Kd,HLA-B*40:01 [2]; [21],15.6 nM
same,Kd,HLA-B*44:02 [3]; [21],321 nM
GFMRFFQLL,Kd,HLA-B*08:01 [1]; [16],2.39 nM
GTFHTMWHVT,Kd,HLA-A*32:01; [14],13400 nM
HPGFTIMAAI,Kd,HLA-B*07:02 [13]; [14],29.5 nM
same,Kd,HLA-B*51:01; [14],5710 nM
same,Kd,HLA-B*53:01,66.5 nM
IGVIITWIGM,Kd,HLA-A*32:01; [14],≥ 59000 nM
IIWKGIYTY,Kd,HLA-A*32:01; [16],3.28 nM
ILRKIFYSV,Kd,HLA-B*08:01 [1]; [16],0.102 nM
IVYGRSNAI,Kd,HLA-A*02:02,14.9 nM
same,Kd,HLA-A*02:03,15.8 nM
same,Kd,HLA-A*02:06; [16],30.2 nM
same,Kd,HLA-A*32:01; [16],3.15 nM
KEISNMLSII,Kd,HLA-B*40:01 [2]; [15],52.2 nM
same,Kd,HLA-B*44:02 [3]; [15],29.4 nM
same,Kd,HLA-B*44:03; [15],267 nM
KPTLDFELI,Kd,HLA-B*51:01; [14],≥ 31200 nM
same,Kd,HLA-B*53:01,279 nM
KTKRILPSI,Kd,HLA-A*30:01; [19],6.75 nM
same,Kd,HLA-A*32:01; [19],125 nM
LINERDYSRY,Kd,HLA-A*01:01 [11]; [22],1030 nM
same,Kd,HLA-A*26:01 [12]; [22],1930 nM
same,Kd,HLA-A*29:02; [22],16500 nM
same,Kd,HLA-A*30:01; [22],≥ 70400 nM
same,Kd,HLA-A*30:02; [22],633 nM
same,Kd,HLA-A*32:01; [22],≥ 69900 nM
LINLTTIAY,Kd,HLA-A*01:01 [11]; [22],576 nM
same,Kd,HLA-A*26:01 [12]; [22],12200 nM
same,Kd,HLA-A*29:02; [22],345 nM
same,Kd,HLA-A*30:01; [22],9390 nM
same,Kd,HLA-A*30:02; [22],1450 nM
same,Kd,HLA-A*32:01; [22],8970 nM
LLLVTHYAI,Kd,HLA-A*32:01; source organism: Dengue virus 3 Singapore/8120/1995,41.6 nM
LLQMEDKAWL,Kd,HLA-B*08:01 [1]; [14],2010 nM
LPVWLAYRVA,Kd,HLA-B*35:01; [14],311 nM
same,Kd,HLA-B*51:01; [14],4990 nM
LSNGASLTI,Kd,HLA-A*32:01; [16],73.5 nM
MEAQLIRQM,Kd,HLA-B*40:01 [2]; [14],802 nM
same,Kd,HLA-B*44:02 [3]; [14],11.2 nM
same,Kd,HLA-B*44:03; [14],119 nM
MLKRARNRV,Kd,HLA-B*08:01 [1]; [20],25 nM
MPIRYQTTAV,Kd,HLA-B*07:02 [13]; [20],11.3 nM
same,Kd,HLA-B*35:01; [20],48 nM
same,Kd,HLA-B*51:01; [20],347 nM
MTKEASREY,Kd,HLA-A*01:01 [11]; [23],3010 nM
same,Kd,HLA-A*26:01 [12]; [23],17.7 nM
same,Kd,HLA-A*29:02; [23],616 nM
same,Kd,HLA-A*30:01; [23],108 nM
same,Kd,HLA-A*30:02; [23],67.5 nM
same,Kd,HLA-A*32:01; [23],≥ 56800 nM
NDMISYGGGW,Kd,HLA-B*44:02 [3]; [19],6.18 nM
same,Kd,HLA-B*44:03; [19],71.2 nM
NEMILMKMK,Kd,HLA-B*44:02 [3]; [19],400 nM
same,Kd,HLA-B*44:03; [19],2910 nM
NLAERFCTE,Kd,HLA-B*08:01 [1]; [16],1900 nM
NNRVLFNNF,Kd,HLA-B*08:01 [1]; [16],773 nM
NNRYRFAFL,Kd,HLA-B*08:01 [1]; [16],31.1 nM
RLNQPVNNI,Kd,HLA-A*32:01; [16],25 nM
RSTSLSVSL,Kd,HLA-A*32:01; [14],100 nM
SGMRRQEQI,Kd,HLA-B*08:01 [1]; [16],16.5 nM
STVGASGVY,Kd,HLA-A*26:01 [4]; source organism: Orthohantavirus sinnombreense,≤ 1 nM
TAIANQAAIL,Kd,HLA-B*08:01 [1]; [20],422 nM
TLKRRSWPLN,Kd,HLA-A*30:01; [15],5450 nM
same,Kd,HLA-A*32:01; [15],19100 nM
TRKVRSNAA,Kd,HLA-B*08:01 [1]; [14],6.25 nM
VATTFVTPM,Kd,HLA-B*35:01; [14],205 nM
WIEDNPWMED,Kd,HLA-A*32:01; [15],4160 nM
WMIRILIGFL,Kd,HLA-B*08:01 [1]; source organism: Dengue virus 4 Dominica/814669/1981,168 nM
WMVHRQWFFD,Kd,HLA-A*32:01; [15],4960 nM
YRPLHFQYV,Kd,HLA-B*08:01 [1]; [16],245 nM
